Changes are numbered by the printed parent chain. Names and notes keep the numbering of the source. One block for each binder: values may come before it.
Assays:
[1] = molecular target: T1, human B7H4, full length, on cells (human, UniProt Q7Z7D3 25-282); assay: flow cytometry on MDA-MB-468 tumor cells [MDA-MB-468 left panel]
T1 construct: Uniprot Q7Z7D3; Used for transfected HEK cells and for the B7H4-expressing human tumor cell lines (endogenous B7H4); also called VTCN1
T1 sequence: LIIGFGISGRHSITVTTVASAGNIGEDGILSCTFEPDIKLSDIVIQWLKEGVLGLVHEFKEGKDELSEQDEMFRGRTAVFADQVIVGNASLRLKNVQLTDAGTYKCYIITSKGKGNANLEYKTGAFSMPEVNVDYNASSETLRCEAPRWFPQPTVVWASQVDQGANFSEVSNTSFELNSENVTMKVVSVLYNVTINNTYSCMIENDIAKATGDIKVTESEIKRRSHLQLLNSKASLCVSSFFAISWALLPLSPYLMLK
Method: (§1) Cells (3×10⁴ cells/well) were incubated in polystyrene 96-well round-bottom plates (Greiner bio-one, cat. no. 650180) with serial dilutions of antibodies (ranging from 0.000458 to 30 μg/mL in 4-fold dilution steps) in 100 μL PBS/0.1% BSA/0.02% azide (staining buffer) at 4° C. for 30 min. Experiments were performed in technical duplicate. After washing twice in staining buffer, cells were incubated in 50 μL secondary antibody at 4° C. for 30 min. As a secondary antibody, R-Phycoerythrin (PE)-conjugated goat-anti-human IgG F(ab′)₂ (1:500 in FACS buffer; Jackson ImmunoResearch Laboratories, Inc., West Grove, PA, cat. no. 109-116-098), was used. Cells were washed twice in staining buffer, re-suspended in 30 μL FACS buffer containing Topro-3 (1:10,000 dilution) and analyzed on an iQue Screener (Intellicyt Corporation, USA). Binding curves were analyzed using non-linear regression (sigmoidal dose-response with variable slope) using GraphPad Prism V7.02 software (GraphPad Software, San Diego, CA, USA).
Binding was analyzed by flow cytometry as described above.

[2] = molecular target: T2, cynomolgus monkey (Macaca fascicularis) B7H4 transcript 1, full length, on HEK-293F cells (cynomolgus monkey, UniProt Q7Z7D3 25-282 (human entry)); assay: flow cytometry, HEK-293F cells transfected with cynomolgus monkey B7H4 [panel Cynomolgus monkey B7H4]
T2 construct: Uniprot A0A2K5U6P5; also called cynomolgus monkey B7H4; cynomolgus B7H4
T2 chain: T1 sequence with L53I, F242L, S252A
Method: as §1

[3] = molecular target: T3, rat (Rattus norvegicus) B7H4, full length, on HEK-293F cells (rat, UniProt Q501W4 25-257); assay: flow cytometry, HEK-293F cells transiently transfected with rat B7H4, PE anti-human IgG F(ab')2 [panel Rat B7H4]
T3 construct: Uniprot Q501W4; also called rat B7H4
T3 sequence: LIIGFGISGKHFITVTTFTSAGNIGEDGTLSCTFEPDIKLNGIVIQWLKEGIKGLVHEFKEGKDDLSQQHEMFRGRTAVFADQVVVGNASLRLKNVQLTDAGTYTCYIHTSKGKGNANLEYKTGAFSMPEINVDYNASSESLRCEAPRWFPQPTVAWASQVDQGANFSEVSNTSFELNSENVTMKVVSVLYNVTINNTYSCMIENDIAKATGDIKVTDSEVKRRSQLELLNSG
Method: as §1

[4] = molecular target: T1, human B7H4, full length, on cells; assay: flow cytometry, HEK-293F cells transiently transfected with human B7H4, PE anti-human IgG F(ab')2 [panel Human B7H4]
Method: as §1

[5] = molecular target: T4, mouse (Mus musculus) B7H4, full length, on HEK-293F cells (mouse, UniProt Q7TSP5 25-257); assay: flow cytometry, HEK-293F cells transiently transfected with mouse B7H4, PE anti-human IgG F(ab')2 [panel Mouse B7H4]
T4 construct: Uniprot Q7TSP5; also called mouse B7H4
T4 sequence: T3 sequence with H109R, E228Q
Method: as §1

[6] = molecular target: T5, rabbit (Oryctolagus cuniculus) B7H4, full length, on HEK-293F cells (rabbit, UniProt Q7Z7D3 25-282 (human entry)); assay: flow cytometry, HEK-293F cells transiently transfected with rabbit B7H4, PE anti-human IgG F(ab')2 [panel Rabbit B7H4]
T5 construct: Uniprot G1TQE8; also called rabbit B7H4
T5 chain: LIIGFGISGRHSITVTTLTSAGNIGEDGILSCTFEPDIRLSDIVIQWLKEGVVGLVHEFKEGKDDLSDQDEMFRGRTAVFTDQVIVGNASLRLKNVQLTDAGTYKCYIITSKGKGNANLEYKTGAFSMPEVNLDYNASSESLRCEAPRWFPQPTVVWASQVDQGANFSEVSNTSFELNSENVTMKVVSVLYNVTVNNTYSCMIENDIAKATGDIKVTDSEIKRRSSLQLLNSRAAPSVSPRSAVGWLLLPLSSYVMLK
Method: as §1

[7] = molecular target: T2, cynomolgus monkey (Macaca fascicularis) …; assay: flow cytometry, HEK-293F cells transiently transfected with cynomolgus monkey B7H4, PE anti-human IgG F(ab')2 [panel Cynomolgus monkey B7H4]
Method: as §1

- EC50 (read off the curve) [1]: ~1 µg/mL
- EC50 (read off the curve) [2]: ~0.1 µg/mL
- EC50 (read off the curve) [3]: ~0.3 µg/mL
- EC50 (read off the curve) [4]: ~0.3 µg/mL
- EC50 (read off the curve) [5]: ~0.3 µg/mL
- EC50 (read off the curve) [6]: ~0.3 µg/mL
- EC50 (read off the curve) [7]: ~0.2 µg/mL
B1: IgG1-B7H4-C1-N52S-FEAR (antibody, V domains shown)
VH: QVQLQQWGAGLLKPSETLSLTCAVYGGSFSGYYWSWIRQPPGKGLEWIGEISHSGSTNYNPSLKSRVTISIDTSKNQFSLKLTSVTAADTAVFYCARGLFNWNFDSWGQGTLVTVSS
VL: DIQMTQSPSSLSASVGDRVTITCRASQGIRNDLGWYQQKPGKAPKRLIYGASSLQSGVPSRFSGSGSGTEFTLTISSLQPEDFATYYCLQHNSYPRTFGQGTTVEIKR
notes: Full length human IgG1 with L234F, L235E, D265A, K409R (FEAR) heavy chain constant region and kappa light chain; bivalent, monospecific; also called IgG1-B7H4-C1-052S-FEAR

B2: bsIgG1-huCD3-H101G-FEALxB7H4-C1-N52S-FEAR (bispecific antibody)
heavy 1: not shown
light 1: not shown
heavy 2: QVQLQQWGAGLLKPSETLSLTCAVYGGSFSGYYWSWIRQPPGKGLEWIGEISHSGSTNYNPSLKSRVTISIDTSKNQFSLKLTSVTAADTAVFYCARGLFNWNFDSWGQGTLVTVSSASTKGPSVFPLAPSSKSTSGGTAALGCLVKDYFPEPVTVSWNSGALTSGVHTFPAVLQSSGLYSLSSVVTVPSSSLGTQTYICNVNHKPSNTKVDKRVEPKSCDKTHTCPPCPAPEFEGGPSVFLFPPKPKDTLMISRTPEVTCVVVAVSHEDPEVKFNWYVDGVEVHNAKTKPREEQYNSTYRVVSVLTVLHQDWLNGKEYKCKVSNKALPAPIEKTISKAKGQPREPQVYTLPPSREEMTKNQVSLTCLVKGFYPSDIAVEWESNGQPENNYKTTPPVLDSDGSFFLYSRLTVDKSRWQQGNVFSCSVMHEALHNHYTQKSLSLSPGK
light 2: DIQMTQSPSSLSASVGDRVTITCRASQGIRNDLGWYQQKPGKAPKRLIYGASSLQSGVPSRFSGSGSGTEFTLTISSLQPEDFATYYCLQHNSYPRTFGQGTTVEIKRTVAAPSVFIFPPSDEQLKSGTASVVCLLNNFYPREAKVQWKVDNALQSGNSQESVTEQDSKDSTYSLSSTLTLSKADYEKHKVYACEVTHQGLSSPVTKSFNRGEC
notes: also called bslgG1-huCD3-H101G-FEALxB7H4-C1-N52S-FEAR; BslgG1-huCD3-H101G-FEALxB7H4-C1-N52S-FEAR
- binding result [3]: binds
- EC50 (read off the curve) [4]: ~0.9 µg/mL
- binding result [5]: binds
- binding result [6]: binds
- EC50 (read off the curve) [7]: ~0.6 µg/mL

- EC50 (read off the curve) [1]: ~0.2 µg/mL
- binding result [2]: binds
B3: IgG1-B7H4-C5-FEAR (antibody, V domains shown)
VH: QLQLQESGPGLVKPSETLSLTCTVSGGSIKSGSYYWGWIRQPPGKGLEWIGNIYYSGSTYYNPSLRSRVTISVDTSKNQFSLKLSSVTAADTAVYYCAREGSYPNQFDPWGQGTLVTVSS
VL: EIVMTQSPATLSVSPGERATLSCRASQSVSSNLAWYQQKPGQAPRLLIYGASTRATGIPARFSGSGSGTEFTLTISSLQSEDFAVYYCQQYHSFPFTFGGGTKVEIKR
notes: Full length IgG1 FEAR, kappa; variable domains from US20190085080A1
